Results: publication doi:10.1101/102822
Where two headings read alike, the source gives them in different places.

Legend:
[1] = target: Human VEGFR-1 D1-7 (residues 1-750), full-length extracellular domain (human) (UniProt P17948); assay: ITC
[2] = target: Human VEGFR-1 D1-3 (residues 1-339) (human) (UniProt P17948); assay: ITC
[3] = target: Human VEGFR-1 D2-7 (residues 132-750) (human) (UniProt P17948); assay: crystal structure
[4] = target: Human VEGFR-1 D1-6 (residues 1-660) (human) (UniProt P17948); assay: crystal structure
[5] = target: Human VEGFR-1 D1-7 (residues 1-750), full-length extracellular domain (human) (UniProt P17948); assay: SEC-MALS

Substance: Human VEGF-A121 (ligand)
- Kd [1]: 2 nM
- Kd [2]: 50 nM
- stoichiometry N [3]: 1
- stoichiometry N [4]: 1
- stoichiometry N [5]: 1

Substance: Human VEGF-A121
- Kd ([1]; ligand): 1.7 nM
